Consider 91 sequences from the supplement of paper PMC9112550, “Optimization of the antimicrobial peptide Bac7 by deep mutational scanning” (BMC Biology, 2022).
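Also: peptides expressed intracellularly from a pBAD plasmid library in pooled LB shake-flask culture, induced with 0.3% L-arabinose, DNA abundance read by NGS, three biological replicates, DESeq2 with apeglm shrinkage.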

For this data set, the system named is Escherichia coli TOP10. The data set can be described thus: shrunken log2 fold change of peptide-encoding DNA abundance (4.5 h post-induction vs induction); higher = less antimicrobial activity (less host growth inhibition). As to conditions: time post-induction: 4.5 h; library: site-saturation at positions 5, 18, 19, 20.
Consider RRIRDRPPRLPRPRPRPRKRPRP, for which the “shrunken log2 fold change” value came to 0.382.
In the case of RRIRKRPPRLPRPRPRPENEPRP, the “shrunken log2 fold change” value turned out to be 0.918.
Regarding RRIRQRPPRLPRPRPRPHGVPRP, the “shrunken log2 fold change” value was -0.226.
For RRIRHRPPRLPRPRPRPPPKPRP, the “shrunken log2 fold change” value was 0.906.
As for RRIRGRPPRLPRPRPRPGRMPRP, the “shrunken log2 fold change” value was 0.727.
For RRIRYRPPRLPRPRPRPFTPPRP, the “shrunken log2 fold change” value was -0.889.
Take RRIRTRPPRLPRPRPRPIPVPRP: the “shrunken log2 fold change” value is -0.412.
As for RRIRFRPPRLPRPRPRPDDSPRP, the figure is -0.154; as for RRIRFRPPRLPRPRPRPDVGPRP, -0.239; as for RRIRRRPPRLPRPRPRPPDEPRP, 0.726.
In the case of RRIRIRPPRLPRPRPRPLCFPRP, the “shrunken log2 fold change” value was -0.485.
Next, RRIRTRPPRLPRPRPRPYFEPRP: -0.223.
RRIRCRPPRLPRPRPRPGNCPRP: the “shrunken log2 fold change” value was -0.0286.
As for RRIRARPPRLPRPRPRPWGCPRP, the figure is 0.211; as for RRIRGRPPRLPRPRPRPFCYPRP, 0.362.
Take RRIRKRPPRLPRPRPRPGQYPRP: the “shrunken log2 fold change” value came to 0.0797.
On to RRIRTRPPRLPRPRPRPYLWPRP, for which the “shrunken log2 fold change” value is -0.284.
As to RRIRCRPPRLPRPRPRPPEPPRP, the “shrunken log2 fold change” value came out at 0.457.
As to RRIRDRPPRLPRPRPRPNMNPRP, the “shrunken log2 fold change” value was -0.41.
For RRIRCRPPRLPRPRPRPDLQPRP, the “shrunken log2 fold change” value was -0.00569.
Turning to RRIRMRPPRLPRPRPRPMRSPRP, the “shrunken log2 fold change” value was determined as 1.67.
Next, RRIRQRPPRLPRPRPRPIMPPRP: -0.361; RRIRWRPPRLPRPRPRPHFHPRP: -0.596.
Take RRIRWRPPRLPRPRPRPELKPRP: the “shrunken log2 fold change” value was 0.276.
Consider RRIRSRPPRLPRPRPRPYTTPRP, for which the “shrunken log2 fold change” value is -0.0205.
With RRIRDRPPRLPRPRPRPPDNPRP, the “shrunken log2 fold change” value was -0.272.
As to RRIRARPPRLPRPRPRPFIEPRP, the “shrunken log2 fold change” value worked out at 0.0738.
Next, RRIRKRPPRLPRPRPRPNVDPRP: 0.17.
As for RRIRGRPPRLPRPRPRPWDTPRP, the figure is 0.194; as for RRIRLRPPRLPRPRPRPSLLPRP, -0.254; as for RRIRARPPRLPRPRPRPNVLPRP, 0.00594.
For RRIRIRPPRLPRPRPRPSMVPRP, the “shrunken log2 fold change” value was -0.654.
For RRIRLRPPRLPRPRPRPQQTPRP, the “shrunken log2 fold change” value worked out at 0.168.
Next, RRIRKRPPRLPRPRPRPNHCPRP: 0.0144; RRIRERPPRLPRPRPRPLTIPRP: -0.101.
On to RRIRTRPPRLPRPRPRPSYEPRP, for which the “shrunken log2 fold change” value is -0.352.
Next, RRIRYRPPRLPRPRPRPVKKPRP: -0.0286; RRIRERPPRLPRPRPRPYTWPRP: -0.161; RRIRHRPPRLPRPRPRPFLDPRP: -0.751.
Next, RRIRIRPPRLPRPRPRPLNSPRP: -0.652.
For RRIRGRPPRLPRPRPRPAWMPRP, the “shrunken log2 fold change” value was found to be 0.554.
RRIRNRPPRLPRPRPRPLPMPRP: the “shrunken log2 fold change” value was -0.14.
Next, RRIRMRPPRLPRPRPRPQRVPRP: 1.27; RRIRYRPPRLPRPRPRPFGYPRP: -1.39; RRIRIRPPRLPRPRPRPRHDPRP: -0.385.
Next, RRIRFRPPRLPRPRPRPDKFPRP: -0.0567; RRIRWRPPRLPRPRPRPKDVPRP: -0.0454; RRIRLRPPRLPRPRPRPGNGPRP: 0.0164.
Take RRIRIRPPRLPRPRPRPRRHPRP: the “shrunken log2 fold change” value was -0.147.
As for RRIRRRPPRLPRPRPRPMLVPRP, the figure is 0.196.
For RRIRPRPPRLPRPRPRPASSPRP, the “shrunken log2 fold change” value came out at 0.0138.
Take RRIRNRPPRLPRPRPRPTDSPRP: the “shrunken log2 fold change” value was -0.21.
For the sequence RRIRSRPPRLPRPRPRPNTDPRP, the “shrunken log2 fold change” value was -0.442.
Regarding RRIRWRPPRLPRPRPRPCRVPRP, the “shrunken log2 fold change” value was 0.103.
RRIRDRPPRLPRPRPRPDPRPRP: the “shrunken log2 fold change” value amounted to 0.0663.
Next, RRIRQRPPRLPRPRPRPFYYPRP: -0.59.
As to RRIRQRPPRLPRPRPRPWCAPRP, the “shrunken log2 fold change” value turned out to be 0.0231.
Regarding RRIRGRPPRLPRPRPRPMYYPRP, the “shrunken log2 fold change” value amounted to 0.197.
On to RRIRCRPPRLPRPRPRPIQQPRP, for which the “shrunken log2 fold change” value was -0.0847.
Next, RRIRPRPPRLPRPRPRPFLAPRP: 0.0316.
Take RRIRKRPPRLPRPRPRPSQCPRP: the “shrunken log2 fold change” value is 0.127.
Next, RRIRRRPPRLPRPRPRPPVFPRP: 0.55.
Regarding RRIRIRPPRLPRPRPRPPEHPRP, the “shrunken log2 fold change” value was -0.037.
As for RRIRARPPRLPRPRPRPWSAPRP, the figure is 0.132; as for RRIRERPPRLPRPRPRPSNAPRP, -0.086; as for RRIRRRPPRLPRPRPRPRHSPRP, 0.226.
As for RRIRSRPPRLPRPRPRPNPVPRP, the “shrunken log2 fold change” value was -0.0484.
As for RRIRLRPPRLPRPRPRPQLTPRP, the figure is 0.103.
Regarding RRIRPRPPRLPRPRPRPHVTPRP, the “shrunken log2 fold change” value was -0.0437.
Next, RRIRSRPPRLPRPRPRPCFDPRP: 0.11; RRIRRRPPRLPRPRPRPNAVPRP: 0.23; RRIRKRPPRLPRPRPRPFSFPRP: 0.0267.
For the sequence RRIRCRPPRLPRPRPRPEEIPRP, the “shrunken log2 fold change” value was -0.0231.
RRIRWRPPRLPRPRPRPPVIPRP: the “shrunken log2 fold change” value was -0.189.
In the case of RRIRARPPRLPRPRPRPKYLPRP, the “shrunken log2 fold change” value is -0.299.
As for RRIRMRPPRLPRPRPRPIPGPRP, the figure is 0.105; as for RRIRRRPPRLPRPRPRPGTIPRP, -0.502; as for RRIRKRPPRLPRPRPRPEMNPRP, 2.14.
With RRIRPRPPRLPRPRPRPICVPRP, the “shrunken log2 fold change” value was -0.215.
Take RRIRERPPRLPRPRPRPWSAPRP: the “shrunken log2 fold change” value is -0.00234.
For the sequence RRIRTRPPRLPRPRPRPGWFPRP, the “shrunken log2 fold change” value worked out at 0.461.
As for RRIRDRPPRLPRPRPRPQWQPRP, the “shrunken log2 fold change” value is -0.0558.
On to RRIRNRPPRLPRPRPRPKRMPRP, for which the “shrunken log2 fold change” value is -0.056.
Consider RRIRSRPPRLPRPRPRPKYKPRP, for which the “shrunken log2 fold change” value is -0.422.
For the sequence RRIRGRPPRLPRPRPRPIQYPRP, the “shrunken log2 fold change” value is -0.0751.
As for RRIRKRPPRLPRPRPRPQAQPRP, the “shrunken log2 fold change” value was 0.0703.
As for RRIRYRPPRLPRPRPRPIMSPRP, the “shrunken log2 fold change” value is -0.114.
Regarding RRIRMRPPRLPRPRPRPEQMPRP, the “shrunken log2 fold change” value was found to be 2.44.
Regarding RRIRYRPPRLPRPRPRPAGYPRP, the “shrunken log2 fold change” value came to 0.0815.
In the case of RRIRKRPPRLPRPRPRPNRNPRP, the “shrunken log2 fold change” value is -0.234.
As for RRIRIRPPRLPRPRPRPFNPPRP, the figure is -0.0657.
